Assay results taken from US5726147A, “Human mutant tissue factor compositions useful as tissue factor antagonists” (priority 1995, dated 1998).

Legend:
[1] = system: coagulation in recalcified plasma; assay: One stage clotting (coagulation) assay of specific functional activity of full-length TF mutants in CHO cell lysates; type: biochemical; details: full-length Ala mutant expressed in CHO cells, cell lysate, coagulant activity normalized to antigen, relative to wild-type TF
Protocol: The full-length TF mutants prepared above were analyzed for function by coagulation assay. […] Coagulation factor deficient plasmas were purchased from George King Bio-medical. The chromogenic substrate, Spectrozyme FXa, was from American Diagnostica Inc. (Greenwich, Conn.).
An alternative approach was to use a polyvalent antibody purified by affinity for capturing TF followed by detection with the TF8-5G9 monoclonal antibody described above.
Initiation of coagulation by wild-type and mutant TF in recalcified plasma was determined after lysis of cell pellets from 2×10^6 cells/ml for each expressed full-length mutant with 15 mM octyl-glucopyranoside in HBS for 15 minutes at 37 C. followed by a 3-fold dilution.
All data represented are based on at least three independent determinations performed in duplicate.

recombinant VIIa = assay: Linked chromogenic assay with purified VIIa and factor X, apparent dissociation constant of the TF-VIIa interaction; type: biochemical; details: for change in KDapp for the TF-VIIa interaction compared to wild-type TF (ratio KD mutant/KD wild-type): full-length Ala mutants, linked chromogenic assay; for binding of Factor VIIa: triple alanine mutants
Protocol: The lysate was prepared by treating cell pellets with 15 mM octyl-glucopyranoside for 15 minutes at 37 C. followed by a 3-fold dilution. […] Formed TF-VIIa complexes were quantified with substrate factor X added at 100 nM for a fixed time. Samples were then removed from the reaction and quenched in 100 mM EDTA in TBS (20 mM Tris-HCl 140 mM NaCl, pH 7.4). […] The rate of Spectrozyme hydrolysis, measured as the increase in absorbance (mOD/min), was determined at ambient temperature in a kinetic plate reader (Molecular Devices, Mountain View, Calif.) followed by quenching and monitoring of product factor Xa formation using the Spectrozyme FXa.
Enzfitter (Elsevier Biosoft) programs were employed to calculate the KDapp from the experimentally determined bound VIIa, and free VIIa which was obtained by subtracting bound VIIa from the initial VIIa concentration.

Molecule	loss of function (reduction in specific functional activity as % of wild-type activity) [1]	change in KDapp for the TF-VIIa interaction compared to wild-type TF (ratio KD mutant/KD wild-type) (recombinant VIIa)	binding of Factor VIIa (recombinant VIIa)
Ile-22 to Ala: full-length human tissue factor mutant, Ile-22 replaced by alanine (protein, UniProt P13726 1-295, looked up, variant I22A, full-length, full-length human tissue factor mutant, Ile-22 replaced by alanine) METPAWPRVPRPETAVARTLLLGWVFAQVAGASGTTNTVAAYNLTWKSTNFKTALEWEPKPVNQVYTVQISTKSGDWKSKCFYTTDTECDLTDEIVKDVKQTYLARVFSYPAGNVESTGSAGEPLYENSPEFTPYLETNLGQPTIQSFEQVGTKVNVTVEDERTLVRRNNTFLSLRDVFGKDLIYTLYYWKSSSSGKKTAKTNTNEFLIDVDKGENYCFSVQAVIPSRTVNRKSTDSPVECMGQEKGEFREIFYIIGAVVFVVIILVIILAISLHKCRKAGVGQSWKENSPLNVS	35%	11 fold	
S16-T17-K20: human tissue factor triple mutant with alanine at positions 16, 17 and 20 (protein, UniProt P13726 33-295, looked up, variant S16A T17A K20A) Tissue factor: SGTTNTVAAYNLTWKAANFATILEWEPKPVNQVYTVQISTKSGDWKSKCFYTTDTECDLTDEIVKDVKQTYLARVFSYPAGNVESTGSAGEPLYENSPEFTPYLETNLGQPTIQSFEQVGTKVNVTVEDERTLVRRNNTFLSLRDVFGKDLIYTLYYWKSSSSGKKTAKTNTNEFLIDVDKGENYCFSVQAVIPSRTVNRKSTDSPVECMGQEKGEFREIFYIIGAVVFVVIILVIILAISLHKCRKAGVGQSWKENSPLNVS	98%		not substantially bind Factor VIIa
Arg-135: human tissue factor mutant, Arg-135 substituted by Ala (protein, UniProt P13726 33-295, looked up, variant R135A) Tissue factor: SGTTNTVAAYNLTWKSTNFKTILEWEPKPVNQVYTVQISTKSGDWKSKCFYTTDTECDLTDEIVKDVKQTYLARVFSYPAGNVESTGSAGEPLYENSPEFTPYLETNLGQPTIQSFEQVGTKVNVTVEDERTLVARNNTFLSLRDVFGKDLIYTLYYWKSSSSGKKTAKTNTNEFLIDVDKGENYCFSVQAVIPSRTVNRKSTDSPVECMGQEKGEFREIFYIIGAVVFVVIILVIILAISLHKCRKAGVGQSWKENSPLNVS	30-50%	7.4 fold	
Phe-140: human tissue factor mutant, Phe-140 substituted by Ala (protein, UniProt P13726 33-295, looked up, variant F140A) Tissue factor: SGTTNTVAAYNLTWKSTNFKTILEWEPKPVNQVYTVQISTKSGDWKSKCFYTTDTECDLTDEIVKDVKQTYLARVFSYPAGNVESTGSAGEPLYENSPEFTPYLETNLGQPTIQSFEQVGTKVNVTVEDERTLVRRNNTALSLRDVFGKDLIYTLYYWKSSSSGKKTAKTNTNEFLIDVDKGENYCFSVQAVIPSRTVNRKSTDSPVECMGQEKGEFREIFYIIGAVVFVVIILVIILAISLHKCRKAGVGQSWKENSPLNVS	30-50%	18 fold	
K65-D66-K68: human tissue factor triple alanine mutant at positions 65, 66 and 68 (protein, UniProt P13726 33-295, looked up, variant K65A D66A K68A) Tissue factor: SGTTNTVAAYNLTWKSTNFKTILEWEPKPVNQVYTVQISTKSGDWKSKCFYTTDTECDLTDEIVAAVAQTYLARVFSYPAGNVESTGSAGEPLYENSPEFTPYLETNLGQPTIQSFEQVGTKVNVTVEDERTLVRRNNTFLSLRDVFGKDLIYTLYYWKSSSSGKKTAKTNTNEFLIDVDKGENYCFSVQAVIPSRTVNRKSTDSPVECMGQEKGEFREIFYIIGAVVFVVIILVIILAISLHKCRKAGVGQSWKENSPLNVS	70%		not substantially bind Factor VIIa
